According to patent publication US20240247080A1, “GLP1/GIP/NPY2 RECEPTOR TRIPLE AGONISTS” (Boehringer Ingelheim International GmbH, priority 2022, published 2024):
Changes are numbered by the printed parent chain. One block for each binder: values may come before it. Starred links: 1 amine or outer side, 2 acyl side, 3 side chain; linkers in the order of their positions; H or OH if unused. Non-standard residues stand in square brackets, D forms with d. Groups on a side chain read outwards from the residue. No end group written: not given here. *: point of attachment. C20 diacid = O=C(O)CCCCCCCCCCCCCCCCCCC(=O)*; C18 diacid = O=C(O)CCCCCCCCCCCCCCCCC(=O)*; γGlu = O=C(O)[C@H](CCC(=O)[*:2])N[*:1]; εLys = N[C@@H](CCCCN[*:1])C(=O)[*:2]; AEEA = NCCOCCOCC(=O)O; Aib = CC(C)(N)C(=O)O

What was measured:
Assay in all cases: cell-based or functional assay
[1] = biological target: T1, human neuropeptide Y2 receptor (human, UniProt P49146 1-381)
T1 sequence (looked up): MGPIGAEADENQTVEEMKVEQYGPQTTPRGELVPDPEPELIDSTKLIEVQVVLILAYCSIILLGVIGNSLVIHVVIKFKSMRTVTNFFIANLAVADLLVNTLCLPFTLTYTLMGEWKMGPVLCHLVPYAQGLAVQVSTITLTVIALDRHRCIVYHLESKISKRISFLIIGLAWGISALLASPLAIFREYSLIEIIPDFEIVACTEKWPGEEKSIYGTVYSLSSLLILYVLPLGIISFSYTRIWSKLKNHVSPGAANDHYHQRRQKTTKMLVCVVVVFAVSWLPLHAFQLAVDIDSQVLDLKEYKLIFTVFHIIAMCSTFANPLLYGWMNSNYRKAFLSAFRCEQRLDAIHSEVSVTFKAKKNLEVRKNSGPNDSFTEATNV

human GLP-1 receptor = human GLP-1 receptor (human, UniProt P43220 24-463)
human GIP receptor = biological target: T2, human GIP receptor (human, UniProt P48546 22-466)
T2 sequence (looked up): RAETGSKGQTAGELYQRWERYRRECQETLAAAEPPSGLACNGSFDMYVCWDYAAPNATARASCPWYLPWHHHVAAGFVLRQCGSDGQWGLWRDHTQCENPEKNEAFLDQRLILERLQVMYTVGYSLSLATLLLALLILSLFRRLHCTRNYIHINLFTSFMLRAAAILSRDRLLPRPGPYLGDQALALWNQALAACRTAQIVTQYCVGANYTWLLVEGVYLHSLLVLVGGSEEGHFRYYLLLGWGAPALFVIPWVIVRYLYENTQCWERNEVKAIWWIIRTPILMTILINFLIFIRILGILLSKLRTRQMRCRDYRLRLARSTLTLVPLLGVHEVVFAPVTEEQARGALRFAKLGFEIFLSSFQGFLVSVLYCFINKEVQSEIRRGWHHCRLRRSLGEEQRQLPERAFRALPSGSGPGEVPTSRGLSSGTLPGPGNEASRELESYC

NPY2 receptor = biological target: T3, NPY2 receptor (human (printed as hNPY2R), UniProt P49146 1-381)
T3 sequence (looked up): T1 sequence (looked up)

GIP receptor = biological target: T4, GIP receptor (human (printed as hGIPR), UniProt P48546 22-466)
T4 sequence (looked up): T2 sequence (looked up)

GLP-1 receptor = GLP-1 receptor (human (printed as hGLP1R), UniProt P43220 24-463)

EC50 hNPY2R 0.5% hP (CreLuc) (NPY2 receptor): 18.7 nM
EC50 hNPY2R 100% hP (CreLuc) (NPY2 receptor): 115 nM
EC50 hGIPR 0.5% hP (CreLuc) (GIP receptor): 0.28 nM
EC50 hGIPR 100% hP (CreLuc) (GIP receptor): 2.83 nM
EC50 hGLP1R 0.5% hP (CreLuc) (GLP-1 receptor): 0.16 nM
EC50 hGLP1R 100% hP (CreLuc) (GLP-1 receptor): 12.5 nM
Binder: Y[Aib]EGTFTSDYSI[Aib]LEKQAQ[Aib]AFVQWLIK([AEEA-AEEA-Glu-Glu-Glu-Glu-C18 diacid])GGPEEGASLRHYYNWLTRQRY-NH2 (also: TFA salt) [Compound 177]

EC50 hNPY2R 0.5% hP (CreLuc) (NPY2 receptor): 10.5 nM
EC50 hNPY2R 100% hP (CreLuc) (NPY2 receptor): 48.7 nM
EC50 hGIPR 0.5% hP (CreLuc) (GIP receptor): 0.29 nM
EC50 hGIPR 100% hP (CreLuc) (GIP receptor): 1.53 nM
EC50 hGLP1R 0.5% hP (CreLuc) (GLP-1 receptor): 0.1 nM
EC50 hGLP1R 100% hP (CreLuc) (GLP-1 receptor): 5.3 nM
Binder: Y[Aib]EGTFTSDYSI[Aib]LEKQAQ[Aib]AFVEWLIK([AEEA-AEEA-γGlu-γGlu-γGlu-γGlu-C20 diacid])GGPSSPASLRHYYNWLTRQRY-NH2 (also: TFA salt) [Compound 175]

EC50 hNPY2R 0.5% hP (CreLuc) (NPY2 receptor): 11.5 nM
EC50 hNPY2R 100% hP (CreLuc) (NPY2 receptor): 39.2 nM
EC50 hGIPR 0.5% hP (CreLuc) (GIP receptor): 0.17 nM
EC50 hGIPR 100% hP (CreLuc) (GIP receptor): 1.26 nM
EC50 hGLP1R 0.5% hP (CreLuc) (GLP-1 receptor): 0.22 nM
EC50 hGLP1R 100% hP (CreLuc) (GLP-1 receptor): 7.71 nM
Binder: Y[Aib]EGTFTSDYSI[Aib]LEKQAE[Aib]AFVQWLIKGGPSEGASLRHYYNWLTRQRY-NH2 (not fully specified (residue 28); also: TFA salt) [Compound 174]

EC50 hNPY2R 0.5% hP (CreLuc) (NPY2 receptor): 30.4 nM
EC50 hNPY2R 100% hP (CreLuc) (NPY2 receptor): 197 nM
EC50 hGIPR 0.5% hP (CreLuc) (GIP receptor): 0.68 nM
EC50 hGIPR 100% hP (CreLuc) (GIP receptor): 3.37 nM
EC50 hGLP1R 0.5% hP (CreLuc) (GLP-1 receptor): 0.29 nM
EC50 hGLP1R 100% hP (CreLuc) (GLP-1 receptor): 9.56 nM
B1: Compound 176 (peptide)
peptide: YXEGTFTSDYSIXLEKQAQXEFVQWLIKGGPSEGASLRHYYNWLTRQRY
modifications: Aib at 2, 13, 20; K28 side chain carries C18DA-E-E-E-E-E (SEQ ID NO: 636); C-terminal amide

More lines, now with the values behind:

Binder: Y[Aib]EGTFTSDYSI[Aib]LEKQAQ[Aib]EFVEWLIK([εLys-γGlu-γGlu-γGlu-γGlu-γGlu-C18 diacid])GGPSSGASLRHYYNWLTRQRY-NH2 [Compound 159]
EC50 CreLuc hNPY2R 0.5% hP [1]: 13.8 nM
EC50 CreLuc hNPY2R 100% hP [1]: 34.6 nM
EC50 CreLuc hGLP1R 0.5% hP (human GLP-1 receptor): 0.19 nM
EC50 CreLuc hGLP1R 100% hP (human GLP-1 receptor): 5.17 nM
EC50 CreLuc hGIPR 0.5% hP (human GIP receptor): 0.35 nM
EC50 CreLuc hGIPR 100% hP (human GIP receptor): 0.91 nM

Binder: Y[Aib]EGTFTSDYSI[Aib]LEKQAQ[Aib]AFVEWLIK([AEEA-AEEA-γGlu-γGlu-γGlu-γGlu-C18 diacid])GGPESGASLRHYYNWLTRQRY-NH2 [Compound 163]
EC50 CreLuc hNPY2R 0.5% hP [1]: 21.3 nM
EC50 CreLuc hNPY2R 100% hP [1]: 55.2 nM
EC50 CreLuc hGLP1R 0.5% hP (human GLP-1 receptor): 0.1 nM
EC50 CreLuc hGLP1R 100% hP (human GLP-1 receptor): 4.72 nM
EC50 CreLuc hGIPR 0.5% hP (human GIP receptor): 0.26 nM
EC50 CreLuc hGIPR 100% hP (human GIP receptor): 0.87 nM

Binder: Y[Aib]EGTFTSDYSI[Aib]LEKQAQ[Aib]AFVEWLIK([AEEA-AEEA-γGlu-γGlu-γGlu-γGlu-C18 diacid])GGPEEPASLRHYYNWLTRQRY-NH2 [Compound 161]
EC50 CreLuc hNPY2R 0.5% hP [1]: 11.5 nM
EC50 CreLuc hNPY2R 100% hP [1]: 41.7 nM
EC50 CreLuc hGLP1R 0.5% hP (human GLP-1 receptor): 0.21 nM
EC50 CreLuc hGLP1R 100% hP (human GLP-1 receptor): 8.06 nM
EC50 CreLuc hGIPR 0.5% hP (human GIP receptor): 0.14 nM
EC50 CreLuc hGIPR 100% hP (human GIP receptor): 1.23 nM

Binder: Y[Aib]EGTFTSDYSI[Aib]LEKQAQ[Aib]AFVQWLIK([AEEA-AEEA-γGlu-γGlu-γGlu-γGlu-C18 diacid])GGPSEPASLRHYYNWLTRQRY-NH2 (also: TFA salt) [Compound 173]
EC50 hNPY2R 0.5% hP (CreLuc) (NPY2 receptor): 12.4 nM
EC50 hNPY2R 100% hP (CreLuc) (NPY2 receptor): 24.9 nM
EC50 hGIPR 0.5% hP (CreLuc) (GIP receptor): 0.27 nM
EC50 hGIPR 100% hP (CreLuc) (GIP receptor): 0.94 nM
EC50 hGLP1R 0.5% hP (CreLuc) (GLP-1 receptor): 0.11 nM
EC50 hGLP1R 100% hP (CreLuc) (GLP-1 receptor): 3.07 nM

B2: Compound 168 (peptide)
peptide: B1 peptide with E21A, Q24E, S32R, E33S
modifications: Aib at 2, 13, 20; K28 side chain: C20DA-gGlu-gGlu-gGlu-gGlu-gGlu-gGlu-eLys; C-terminal NH2
EC50 CreLuc hNPY2R 0.5% hP [1]: 6.05 nM
EC50 CreLuc hNPY2R 100% hP [1]: 36.1 nM
EC50 CreLuc hGLP1R 0.5% hP (human GLP-1 receptor): 0.11 nM
EC50 CreLuc hGLP1R 100% hP (human GLP-1 receptor): 3.59 nM
EC50 CreLuc hGIPR 0.5% hP (human GIP receptor): 0.2 nM
EC50 CreLuc hGIPR 100% hP (human GIP receptor): 1.5 nM
